T1: IFF05588
T1 chain: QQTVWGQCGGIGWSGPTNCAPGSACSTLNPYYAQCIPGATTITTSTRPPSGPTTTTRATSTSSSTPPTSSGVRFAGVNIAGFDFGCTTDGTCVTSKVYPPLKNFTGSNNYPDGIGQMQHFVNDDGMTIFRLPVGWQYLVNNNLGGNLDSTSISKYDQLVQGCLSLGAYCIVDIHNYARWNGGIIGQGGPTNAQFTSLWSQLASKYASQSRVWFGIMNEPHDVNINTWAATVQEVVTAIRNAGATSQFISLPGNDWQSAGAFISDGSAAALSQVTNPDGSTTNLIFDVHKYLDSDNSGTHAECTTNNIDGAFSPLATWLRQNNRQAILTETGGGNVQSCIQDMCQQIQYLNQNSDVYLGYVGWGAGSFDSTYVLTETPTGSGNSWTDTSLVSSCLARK

B1: IFF21342 (protein)
chain: NLNKPVITPNFPGNGLASLGQGLMDHLAPTHSTWDDWGAGWIPADCKSMVQGAGFSPNDIIPFNIHYDDCAQSWTFCRHKNSPLSEIQILDIFGRLPVRMRQFVRHLVFVPGNKSAGSNGDNVLMVGDVDVTVFAHEIGHSLDSHAFDPSYGVPFSTGNVWVSNYNLDSAVPDPYAQSSQQENFAQETVVSLYDKVVPGGIGTIQPNWQAIFHQYATLEGYIGNVIIPGGTCTHRLTDSPPVTMSGSKKSRRALGPKPKVSLSPKVKEIEAIPMESSITMTSFDEHGRPNGTYVINL
B2: IFF21341 (protein)
chain: B1 chain with Q21P, D25N, H26N, A44S, P240A, R288K, I295V, N296H
B3: IFF21348 (protein)
chain: TLNKPVIQPNFPGGGLASLGPGLLNNLAITSSTSDVWGAGWIPADCKSLVQGAGLSPFDVIPFNIHLSDCSQTWTFCRHKNSPLSQTDIINLFARVPVRMRDFIRHFVFIPGATSAGSNGDNTLMVGNVDITVFLHEIGHSLDSHAFDPSYGVPFSTGNVWVSNYNLDSAVTDSYAQTSQQENFAQETVVSVYDKVVPGGIGTIQPNWQAIFHQYATLEGYIGNTIIPGGTCVNRLTDSQPVPMGNSAKFRRTMGPKPTVSLSPDVKEIKAIPMSDSITMTSFDEFGNVNGTYVIQL
B4: IFF21343 (protein)
chain: NLDKPVIQPNFPGNGLASLGQGLMDHLAPTHSTWDDWGAGWIPQDCKSMAQGAGFSANDIIPFNIHYDDCAQSWTFCRHKNSPLSELQILDIFGRLPVRMRSFVRHLVFVPGNKSAGSNGDNVLMVGAVDVTVFAHEIGHSLDSHAFDPSYGVPFSTGSVWTSNYNLDSAVPDPYAQTSQQENFAQETVVSLYDKVVPGGIGTIQPNWKAIFHQYATLQGYIGNVIIPGGTCTHRLTDSPPVTMSSAKLRRGLGPKPNVSLSPKVKEIESIPMESSITMTSFDEHGKPNGTYVVHLK
B5: IFF21334 (protein)
chain: ILDKPVIQPNFPGNGLASLGQGLMDNLSPTHSTWDDWGAGWIPQDCKSLVEGAGFSASDVIPFNIHYDDCAQTWTFCRHKDSPLSEITILDIFGRLPVRMRSFVRHLVFIPGNKSAGSSGDNVLMVGAVDVTVFAHEIGHSLDSHAFDPSYGVPFSTGNVWISNYNLDSAVTDPYAQTSQQENFAQETVVSLYDKVVPGGIGTIQPNWQAIYHQYATLEGYIGDVIIPGGTCTHRLTDSPPVQMSSSSKLRRALGPKPHVALSPEVEEIEAIPMKSSITMTSFDAAGKPNGTYVINL
B6: IFF21359 (protein)
chain: TLDKPVIKPPFPNGGLGSLGPDLMSSLPIAAHTTTDWDADHLPRDCKTLAQGAGFSPLDVSAFDIHYDDCKAQPWVFCRHKDSPLSKTDMTELFGRLPVRMRQFIRHIIALPGQRSAGSAGDNIQMNGDCEITVFIHETGHSLDSHAFDPKLGVPFSNGKAWTDAYHKDTAVTDDYGRTSQQENFAQETVVSVYDKNVEGGIGKIQPNAQAIRNAYTTLETYIGNIIIPGGECTHRLENSPSVPKADSARTRLVARAEPVGEGLTRIEPVPFGPILSVRY
B7: IFF21360 (protein)
chain: RLDKPVIKPPFPNGGGLGSLGPDLMSSLPIAAHTTSDWDSDHLPRDCKRLAQSAGFSPLDVDAFNIRFDDCKQQPWVFCRHKDAPLSKSNMTELFGRLPVRMRQYIRHIIALPGQRSAGSAGDNIQMNGDCEITVFIHETGHSLDSHAFDPKHGVPFSNSPVWKDAYDKDTAVTDDYAQTSQQENFAQETVVAVYDKNVKGGGIGKIQPNAQAIRNAYTTLEKYIGDIIIPGGECTHRLENSPAVPKVDSARTRLVAKSEPVGEGLTRIEPIPMGPITLARY
B8: IFF21354 (protein)
chain: RLDKPVIKPPFPNGGLGSLGPDLMSSLKVASHTTDDWDKNHLPRDCKSLAQNAGFSPLDVSAFNIHYDDCKSQPWVFCRHKDSPLSKKDMTELFGRMPVRMRQFIRHIIALPGQRSAGSSGDNIQMNGDVEITVFIHETGHSLDSHAFDPKLGAPFSNGKAWTDAYNKDSAVTDDYAQTSQQENFAQETVVSVYDKNVKGGIGKIQPNAQAIRNAYTTLEKYIGNIIIPGGVCTHRLENSPSVPKADSARTRLVPKSEPVGEGLTRIEPIAMGPITPASY
B9: IFF21350 (protein)
chain: NLNKPVIQPNFPGNGLASLGQGILDHLAPTQSTWDDWGAGWIPQDCKSLAQGAGLSPNDIIPFNIHYADCAQTWTFCRHKNSPLSEVNIIDLFGRLPVRMRQFVRHLVFIPGNKSAGSNGDNVLMVGPVDITVFAHEIGHSLDSHAFDPSYGVPFSTGNVWVSNYNLDSAVPDPYAQSSQQENFAQHTVISIYDKAVPGGIGTIQPNWQAIFHQYATLEGYIGDIIIPGGTCTHRLTDSPPVTMASKRRALGPKPKVALSPEVEEIEAIPMKNTITMTSFDEAGKPNGSYVINL
B10: IFF21332 (protein)
chain: ALNKPIINPQFPNGGLGSLGPGLMQHLQPAKRTWDKWGPGWIPEDCKNLAKSNNFSPFDITPFNIHYEDCPDSWVFCRHKDSPLSETAMIDMFGRMPVKMRSYIRHIIALPGTRSAGSAGDNIQMNGDCEITVFVHETGHSLDSHAFDPKYGAPFSNSKVWLDNYNQDSAVCDGYAQSSQQENLAQETVVGLFDKVVPGGVGTIQPNWKAIFHQYATVQGYLGDQILPGGTCSHRLTNSKPVPMGDSKKSRRGLGPAPDVSLSAHVTEIEPIAMGDSIVLTQYNDGGDAISKREVTLN
B11: IFF21379 (protein)
chain: QLDKPALTSNLDYLLEGNTNNLPRNGGPYWGKWADGLMPADCKSIAESQGLNPTDFEVWDIFYNDCQDGWSFCRHKDSSDSFETLVETFGRVPVRMRSWVRHILTIPGPNWAFNSNGNIALSGTTSSNLDVALHETAHSLDLLGAYGNGALSSMQEWLNAYNRDSHVPDEYARSNQVENVAQNTVVAIYDKVVPGGFPGIQPNYQRIQNQYTLVQAKAGNQILPGGTCDRHLENSDTVPMSGLSLAYKLDSEKSRGVWHDSAFKGTYMNIVKEFTPFNTQEFHH
B12: IFF21333 (protein)
chain: RLDKPIINPTFPGGGLDSLAQGLLDHLAPTQSTHDNWGAGYIPEDCKNLAKSNGFSPFDITPFNIHYSDCNDVWIFCRHKDSPLSQIDMIDLFGRMPVHMREYIRHVIALPGNKSAGSSGDNIQMNGAVGITVFVHETGHSLDSHGFDPKYGVPFSNSKTWLDNYNMDTAVCDSYAQSSQQENLAQETVVGLYDKVVPGGVGNIQPNWKAIFHQYATVQGYLGDILTPGGTCRHRLANSKPVPMGDSAKFRRDLGPAPDVSLSSDVIEIESIPMGSSIRITEFDEAGNPIGSKNVSLVM
B13: IFF21351 (protein)
chain: ALNKPVIQPNFPGNGLASLGQGIMQHLTPTQSTWDDWGAGWIPQDCKSIVQGAGFSPNDIIPFNIHYTDCGQTWTFCRHKNSPLSEINIIDIFGRLPVRMRQFVRHLVFVPGNKSAGSNGDNILMVGPVDVTVFIHEIGHSLDSHAFDPSYGVPFSTGNVWVSNYNLDSAVPDPYAQSSQQENFAQHTVVSIFDKVVPGGIGTIQPNWQAIFHQYATLEGYIGDTIIPGGTCTHRLTDSPPVTMASKRRGLGPKPKVALSPEVEEIESIPMKSTFKMTSFDEAGKPSGNYVINL

Residue numbers refer to the chain shown, from its start.

This data set concerns the target T1, IFF05588.
B1: the Relative late peak area (centered, scaled, averaged over 5, 10 and 15 min) turned out to be 0.12; the Relative late peak area (centered, scaled, averaged over doses, 24 h; sample diluted 2-fold) was determined as 0.73.

With B2, the Relative late peak area (centered, scaled, averaged over 5, 10 and 15 min) stood at 1.03; the Relative late peak area (centered, scaled, averaged over doses, 24 h; sample diluted 10-fold) came out at 0.62.

Consider B3, for which the Relative late peak area (centered, scaled, averaged over 5, 10 and 15 min) came to 1.4; the Relative late peak area (centered, scaled, averaged over doses, 24 h; sample diluted 10-fold) came out at 0.68.

With B4, the Relative late peak area (centered, scaled, averaged over 5, 10 and 15 min) stood at 0.33; the Relative late peak area (centered, scaled, averaged over doses, 24 h; sample diluted 2-fold) turned out to be 0.8.

As for B5, the Relative late peak area (centered, scaled, averaged over 5, 10 and 15 min) is 1.38; the Relative late peak area (centered, scaled, averaged over doses, 24 h; sample diluted 10-fold) came to 0.97; the Relative late peak area (reverse phase chromatography, 24 h) is 0.65.

In the case of B6, the Relative late peak area (centered, scaled, averaged over 5, 10 and 15 min) came out at 1.3; the Relative late peak area (centered, scaled, averaged over doses, 24 h; sample diluted 10-fold) turned out to be 0.61; the Relative late peak area (reverse phase chromatography, 24 h) was found to be 0.68.

Consider B7, for which the Relative late peak area (centered, scaled, averaged over 5, 10 and 15 min) was -0.58; the Relative late peak area (centered, scaled, averaged over doses, 24 h; sample diluted 1-fold) came out at 0.62; the Relative late peak area (reverse phase chromatography, 24 h) is 0.66.

Turning to B8, the Relative late peak area (centered, scaled, averaged over 5, 10 and 15 min) was 1.34; the Relative late peak area (centered, scaled, averaged over doses, 24 h; sample diluted 10-fold) worked out at 0.87; the Relative late peak area (reverse phase chromatography, 24 h) is 0.67.

Take B9: the Relative late peak area (centered, scaled, averaged over 5, 10 and 15 min) was 1.55; the Relative late peak area (centered, scaled, averaged over doses, 24 h; sample diluted 10-fold) was found to be 1.06; the Relative late peak area (reverse phase chromatography, 24 h) turned out to be 0.61.

B10: the Relative late peak area (centered, scaled, averaged over 5, 10 and 15 min) was 0.3; the Relative late peak area (centered, scaled, averaged over doses, 24 h; sample diluted 2-fold) worked out at 0.8; the Relative late peak area (reverse phase chromatography, 24 h) is 0.65.

For B11, the Relative late peak area (centered, scaled, averaged over 5, 10 and 15 min) is -0.02; the Relative late peak area (centered, scaled, averaged over doses, 24 h; sample diluted 2-fold) was found to be 0.75; the Relative late peak area (reverse phase chromatography, 24 h) worked out at 0.45.

On to B12, for which the Relative late peak area (centered, scaled, averaged over 5, 10 and 15 min) worked out at 0.26; the Relative late peak area (centered, scaled, averaged over doses, 24 h; sample diluted 2-fold) came out at 0.69; the Relative late peak area (reverse phase chromatography, 24 h) worked out at 0.59.

For B13, the Relative late peak area (centered, scaled, averaged over 5, 10 and 15 min) was -0.57; the Relative late peak area (centered, scaled, averaged over doses, 24 h; sample diluted 1-fold) was 0.66.

The values are drawn from patent publication US20250051821.
